Columns and labels:
GST-Z1 = system: T1, GST-Z1
T1 sequence: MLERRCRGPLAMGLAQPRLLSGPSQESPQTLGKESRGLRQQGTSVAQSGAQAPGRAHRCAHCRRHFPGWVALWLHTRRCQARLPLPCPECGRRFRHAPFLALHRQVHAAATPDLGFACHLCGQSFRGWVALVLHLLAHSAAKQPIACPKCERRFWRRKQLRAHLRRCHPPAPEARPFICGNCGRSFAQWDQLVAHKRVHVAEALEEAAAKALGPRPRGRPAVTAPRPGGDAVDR

GST-Z2-P123 [1] = system: T2, GST-Z2-P123
T2 sequence: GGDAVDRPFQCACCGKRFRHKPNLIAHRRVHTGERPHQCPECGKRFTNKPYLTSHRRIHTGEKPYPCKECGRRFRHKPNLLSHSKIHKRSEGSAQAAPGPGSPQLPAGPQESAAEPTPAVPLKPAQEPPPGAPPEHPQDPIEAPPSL

GST-Z2 = system: T3, GST-Z2
T3 sequence: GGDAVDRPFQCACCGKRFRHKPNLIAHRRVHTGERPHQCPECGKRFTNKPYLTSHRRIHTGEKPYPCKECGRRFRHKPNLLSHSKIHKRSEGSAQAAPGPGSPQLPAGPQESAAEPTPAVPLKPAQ

GST-Z3 = system: T4, GST-Z3
T4 sequence: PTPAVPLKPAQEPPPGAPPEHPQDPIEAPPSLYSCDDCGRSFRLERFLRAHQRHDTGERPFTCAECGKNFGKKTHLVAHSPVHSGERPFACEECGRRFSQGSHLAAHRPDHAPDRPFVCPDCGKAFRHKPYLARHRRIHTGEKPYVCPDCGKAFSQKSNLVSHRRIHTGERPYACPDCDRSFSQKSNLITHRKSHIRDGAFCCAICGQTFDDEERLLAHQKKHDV

[2] = target: the molecule itself; test: Gel shift Multimers, self-association on DNA
Experimental: Binding reactions (30 ul) contained 0.05 pmole labeled DSR probe, 40 mM KCl, 10 mM HEPES (pH 8.0), 4% Ficoll, 33 ng/ul poly dIdC, 1 mM DTT, 16.7 uM ZnCl_2, and 0.5–10 ug of protein. Binding reactions were incubated for 20 minutes at 37° C., 15 min on ice, and then resolved on 6% native polyacrylamide gels in 0.25×TBE buffer. Gels were dried, exposed to Kodak XAR film at −80° C., and signals were detected by autoradiography. Competition binding reactions were assembled as described above with the addition of 0.5, 5, or 50 pmole of unlabeled double-stranded competitor DNA to the reactions prior to the addition of protein. For time course competition assays, 60 ul binding reactions were assembled and incubated as above. Following the incubation step on ice, 50 pmole of unlabeled DSR competitor DNA was added to the binding reactions and samples where removed at the indicated time points, loaded on a 6% native PAGE gel, and resolved by electrophoresis at 25V until all samples were loaded. After the final sample was loaded, the voltage was increased to 100V and samples were resolved by electrophoresis for an additional 1.5 hours. Signals on the dried gels were quantified on a phosphoimager (BioRad model GS 525). A value for % probe bound was calculated as a ratio of protein-bound probe to total probe (bound and unbound probe) per sample and values were plotted against time. […]

[3] = target: T5, GST-Z2 (RIP60 zinc fingers 6-8 plus part of PRR, GST-Z2-P12) (Homo sapiens, UniProt Q9BWE0 SEQ:1-126); test: competition; no competition at 1000-fold excess; settings: tags: GST N-terminal
T5 sequence: T3 sequence
Experimental: (§1) Binding reactions were incubated for 20 minutes at 37° C., 15 min on ice, and then resolved on 6% native polyacrylamide gels in 0.25×TBE buffer. Gels were dried, exposed to Kodak XAR film at −80° C., and signals were detected by autoradiography. Competition binding reactions were assembled as described above with the addition of 0.5, 5, or 50 pmole of unlabeled double-stranded competitor DNA to the reactions prior to the addition of protein. For time course competition assays, 60 ul binding reactions were assembled and incubated as above. Following the incubation step on ice, 50 pmole of unlabeled DSR competitor DNA was added to the binding reactions and samples where removed at the indicated time points, loaded on a 6% native PAGE gel, and resolved by electrophoresis at 25V until all samples were loaded. After the final sample was loaded, the voltage was increased to 100V and samples were resolved by electrophoresis for an additional 1.5 hours. Signals on the dried gels were quantified on a phosphoimager (BioRad model GS 525). A value for % probe bound was calculated as a ratio of protein-bound probe to total probe (bound and unbound probe) per sample and values were plotted against time.
(§2) Binding of the GST-Z2 to the DSR probe was stable in the presence of 1000-fold excess of IBF, SV-AT, or Py-AT competitors, but was competed with 100-fold excess of unlabeled DSR DNA. […]

[4] = target: T6, GST-Z1 (RIP60 zinc fingers 1-5) (Homo sapiens, UniProt Q9BWE0 SEQ:1-234); test: competition; not significantly competing; settings: tags: GST N-terminal
T6 chain: T1 sequence
Experimental: as §1, §2

GST-Z12 [5] = target: T7, GST-Z12 (Homo sapiens, UniProt Q9BWE0 SEQ:1-349); test: competition; USR competes; settings: tags: GST N-terminal
T7 chain: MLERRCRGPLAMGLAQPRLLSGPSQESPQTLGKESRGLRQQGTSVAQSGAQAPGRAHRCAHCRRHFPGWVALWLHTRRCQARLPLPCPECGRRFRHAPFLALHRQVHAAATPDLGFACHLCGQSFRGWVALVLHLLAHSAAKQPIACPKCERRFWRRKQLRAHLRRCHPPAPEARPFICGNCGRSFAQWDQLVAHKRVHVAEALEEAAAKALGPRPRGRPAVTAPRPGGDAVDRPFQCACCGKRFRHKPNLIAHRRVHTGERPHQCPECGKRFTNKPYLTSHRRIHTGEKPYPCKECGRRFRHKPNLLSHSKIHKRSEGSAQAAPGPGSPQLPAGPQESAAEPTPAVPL
Experimental: as §1, §2

[6] = target: T5, GST-Z2 (RIP60 zinc fingers 6-8 plus …); test: competition; USR competes for binding to DSR; settings: tags: GST N-terminal
Experimental: as §1, §2

[7] = target: T6, GST-Z1 (RIP60 zinc fingers 1-5); test: EMSA; footprinting and gel shift; unstable binding; settings: tags: GST N-terminal
GST-Z2-P123 [8] = target: T8, GST-Z2-P123 (Homo sapiens, UniProt Q9BWE0 SEQ:1-147); test: EMSA; multimers; settings: tags: GST N-terminal; label: 32P; 5' overhangs
T8 sequence: T2 sequence

GST-Z2-P1 = target: T9, GST-Z2-P1 (Homo sapiens, UniProt Q9BWE0 SEQ:225-337); test: EMSA; no multimers; settings: tags: GST N-terminal; label: 32P; 5' overhangs
T9 sequence: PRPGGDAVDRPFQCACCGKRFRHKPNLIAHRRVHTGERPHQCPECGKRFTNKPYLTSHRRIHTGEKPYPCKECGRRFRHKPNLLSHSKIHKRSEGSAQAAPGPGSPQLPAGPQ

[9] = target: T5, GST-Z2 (RIP60 zinc fingers 6-8 plus …); test: EMSA; competed by 100-fold DSR; more stable than GST-Z1; settings: tags: GST N-terminal; label: 32P; 5' overhangs
Experimental: (§3) A value for % probe bound was calculated as a ratio of protein-bound probe to total probe (bound and unbound probe) per sample and values were plotted against time.
(§4) Binding of the GST-Z2 to the DSR probe was stable in the presence of 1000-fold excess of IBF, SV-AT, or Py-AT competitors, but was competed with 100-fold excess of unlabeled DSR DNA. […] In contrast, binding of GST-Z3 to the DSR probe was eliminated by a 1000-fold excess of all unlabelled competitors tested. […] In a like manner, the USR was also able to compete for binding of these proteins to the DSR.
(§5) To ascertain if Z1 and Z2 show any differences in binding activity, the stability of Z1 and Z2 complexes with the DSR was examined in competition gel shift assays. Identical amounts of GST-Z1 and GST-Z2 were incubated with ^32P-labeled probe for 20 min, and then a 1000-fold molar excess of unlabeled competitor DSR was added. Samples were removed from the binding reactions at various times thereafter and loaded directly onto non-denaturing gels running at low voltage. After all the samples were loaded, the voltage was increased to 100V for 1 hr. After drying the gels, the signals in the shifted complexes were quantified by phosphoimaging.

[10] = target: T6, GST-Z1 (RIP60 zinc fingers 1-5); test: EMSA; competed by 100-fold DSR; less stable than GST-Z2; settings: tags: GST N-terminal; label: 32P; 5' overhangs
Experimental: as §3, §4, §5

GST-Z12 [11] = target: T7, GST-Z12; test: EMSA; specific; settings: tags: GST N-terminal; label: 32P; 5' overhangs
Experimental: DSR (50 pmole) was labeled by Klenow fill-in reaction of 5' overhangs in the presence of [α-^32P]-dATP. Other probes were end-labeled with polynucleotide kinase and [γ-^32P]. Binding reactions (30 ul) contained 0.05 pmole labeled DSR probe, 40 mM KCl, 10 mM HEPES (pH 8.0), 4% Ficoll, 33 ng/ul poly dIdC, 1 mM DTT, 16.7 uM ZnCl_2, and 0.5–10 ug of protein. Binding reactions were incubated for 20 minutes at 37° C., 15 min on ice, and then resolved on 6% native polyacrylamide gels in 0.25×TBE buffer. Gels were dried, exposed to Kodak XAR film at −80° C., and signals were detected by autoradiography. Competition binding reactions were assembled as described above with the addition of 0.5, 5, or 50 pmole of unlabeled double-stranded competitor DNA to the reactions prior to the addition of protein. For time course competition assays, 60 ul binding reactions were assembled and incubated as above. […] Signals on the dried gels were quantified on a phosphoimager (BioRad model GS 525). A value for % probe bound was calculated as a ratio of protein-bound probe to total probe (bound and unbound probe) per sample and values were plotted against time. […]

casein kinase II
phosphorylation in vitro (32P-ATP, SDS gel, autoradiography) (GST-Z1): neither GST-Z1 nor GST-Z3 were phosphorylated to any great degree
phosphorylation in vitro (32P-ATP, SDS gel, autoradiography) (GST-Z2-P123 [1]): Both GST-Z2 and GST-Z2P123 were phosphorylated
phosphorylation in vitro (32P-ATP, SDS gel, autoradiography) (GST-Z2): Only the GST-Z2 polypeptide, which contains the casein kinase II phosphorylation domain was phosphorylated
phosphorylation in vitro with and without DNA (GST-Z2): GST-Z2 polypeptide was phosphorylated by casein kinase II in the absence of DNA. However, the extent of phosphorylation increased in the presence of the double stranded DRS oligo, the linearized plasmid pCH127 and the supercoiled pCH127
phosphorylation in vitro (32P-ATP, SDS gel, autoradiography) (GST-Z3): neither GST-Z1 nor GST-Z3 were phosphorylated to any great degree

B1: GST-Z2 (other)
chain: T3 sequence
notes: also called GST-Z2(P12); GST-Z2-P12; not shown: glutathione-S-transferase (GST) purification tag, 26 kD, encoded by pGEX-2T (Pharmacia Biotech), at the amino terminus
binding result [2]: binds

B2: Py-AT (OCH37/OCH38) (dsDNA)
DNA 1: CTGTTTTTTTTAGTATTAAGC
DNA 2: GCTTAATACTAAAAAAAACAG
binding result [3]: no binding

B3: IBF (OCH13/OCH14) (dsDNA)
DNA 1: GATCCGGGAAGGCGGGCGCTGGGGGCGCTGCGGCGCTGCGCTCCACCT
DNA 2: GATCTAGGTGGAGCGCAGCGCCGCAGCGCCCCCAGCGCCCGCCTTCCCG
binding result [3]: no binding
binding result [4]: no binding

B4: USR (OCH39/OCH40) (dsDNA)
DNA 1: GATCTTAACAGTAATAATAAATATCT
DNA 2: GATCAGATATTTATTATTACTGTTAA
binding result (GST-Z12 [5]): binds
binding result [6]: binds
binding result [7]: binds

B5: DSR (OCH7/OCH8) (dsDNA)
DNA 1: GATCTTTTATTATTATTATTAGTTCG
DNA 2: GATCCGAACTAATAATAATAATAAAA
binding result (GST-Z2-P123 [8]): binds
binding result (GST-Z2-P1): binds
binding result [9]: binds
binding result [10]: binds
binding result (GST-Z12 [11]): binds

— patent US6903077, “Methods and products for delivering nucleic acids” (University of Vermont and State Agricultural College)
